Publication PMC6093632 (Science Advances, 2018)

Target: the molecule itself
Test: cryo-EM structure

B1: full-length rat TRPV6 (natural protein, UniProt Q9R186 41-767, looked up)
chain: MGWSLPKEKGLILCLWNKFCRWFHRRESWAQSRDEQNLLQQKRIWESPLLLAAKENNVQALIKLLKFEGCEVHQKGAMGETALHIAALYDNLEAAMVLMEAAPELVFEPMTSELYEGQTALHIAVINQNVNLVRALLARGASVSARATGSVFHYRPHNLIYYGEHPLSFAACVGSEEIVRLLIEHGADIRAQDSLGNTVLHILILQPNKTFACQMYNLLLSYDGGDHLKSLELVPNNQGLTPFKLAGVEGNIVMFQHLMQKRKHIQWTYGPLTSTLYDLTEIDSSGDDQSLLELIVTTKKREARQILDQTPVKELVSLKWKRYGRPYFCVLGAIYVLYIICFTMCCVYRPLKPRITNRTNPRDNTLLQQKLLQEAYVTPKDDLRLVGELVSIVGAVIILLVEIPDIFRLGVTRFFGQTILGGPFHVIIVTYAFMVLVTMVMRLTNSDGEVVPMSFALVLGWCNVMYFARGFQMLGPFTIMIQKMIFGDLMRFCWLMAVVILGFASAFYIIFQTEDPDELGHFYDYPMALFSTFELFLTIIDGPANYDVDLPFMYSITYAAFAIIATLLMLNLLIAMMGDTHWRVAHERDELWRAQVVATTVMLERKLPRCLWPRSGICGREYGLGDRWFLRVEDRQDLNRQRIRRYAQAFQQQDDLYSEDLEKDSGEKLEMARPFGAYLSFPTPSVSRSTSRSSTNWDRLRQGALRKDLQGIINRGLEDGEGWEYQI
stoichiometry N: 4 subunits
